Results reported in the RNAGym collection of RNA variant scans (doi:10.7554/elife.80360).

B1: Hairpin Ribozyme (parent)
chain: GUCCUCUUUCACGUGCGCGUGAAAGAGAGAAGUGAACCAGAGAAACACACGUUGUGGUAUAUUACCUGGUA

Variants of: B1
Test: self-cleavage, relative activity (ratio to wild type); higher = more cleavage; co-transcriptional

Question: For U8G C46U, which self-cleavage is on record?
Answer: 0.195

Question: With U8G C46G as the variant, how does the self-cleavage read?
Answer: 0.128

Question: Which self-cleavage does the source give for U8G A24G here?
Answer: 0.632

Question: With U9A G15A as the variant, how does the self-cleavage read?
Answer: 0.704

Question: With U9A G15U as the variant, how does the self-cleavage read?
Answer: 0.864

Question: Which self-cleavage does the source give for U9G A26U here?
Answer: 0.477

Question: With U8C A41U as the variant, how does the self-cleavage read?
Answer: 1.12

Question: Which self-cleavage does the source give for U9G C66U here?
Answer: 0.429

Question: For U8A G21C, which self-cleavage is on record?
Answer: 0.504

Question: For U9A C10G, which self-cleavage is on record?
Answer: 0.519

Question: Which self-cleavage does the source give for U9A C10A here?
Answer: 0.743

Question: With U9A C10U as the variant, how does the self-cleavage read?
Answer: 0.455

Question: With U9C U70A as the variant, how does the self-cleavage read?
Answer: 0.669

Question: With U8C A64U as the variant, how does the self-cleavage read?
Answer: 0.104

Question: With U8C A64G as the variant, how does the self-cleavage read?
Answer: 0.443

Question: For U9A A49C, which self-cleavage is on record?
Answer: 0.254

Question: Which self-cleavage does the source give for U9A G54U here?
Answer: 0.39

Question: Which self-cleavage does the source give for U9G A41C here?
Answer: 0.693

Question: Which self-cleavage does the source give for U8G A23C here?
Answer: 1.21

Question: For U9A A36G, which self-cleavage is on record?
Answer: 0.797

Question: Which self-cleavage does the source give for U9A A36C here?
Answer: 0.456

Question: Which self-cleavage does the source give for U8C G29A here?
Answer: 0.112

Question: For U8C G29U, which self-cleavage is on record?
Answer: 0.081

Question: With U9C U20A as the variant, how does the self-cleavage read?
Answer: 0.692

Question: With U9C U20C as the variant, how does the self-cleavage read?
Answer: 0.885

Question: Which self-cleavage does the source give for U9A A30U here?
Answer: 0.195

Question: Which self-cleavage does the source give for U8C G40U here?
Answer: 0.164

Question: With U9A U20G as the variant, how does the self-cleavage read?
Answer: 0.583

Question: With U9A U20A as the variant, how does the self-cleavage read?
Answer: 0.605

Question: Which self-cleavage does the source give for U8C G32C here?
Answer: 0.0916

Question: Which self-cleavage does the source give for U9C C46G here?
Answer: 0.167

Question: For U8G G29C, which self-cleavage is on record?
Answer: 0.141

Question: With U8G A59U as the variant, how does the self-cleavage read?
Answer: 0.188

Question: For U8G A59G, which self-cleavage is on record?
Answer: 0.121

Question: Which self-cleavage does the source give for U9A A22U here?
Answer: 0.907

Question: Which self-cleavage does the source give for U9A A41C here?
Answer: 0.783

Question: For U9A A41U, which self-cleavage is on record?
Answer: 0.786

Question: Which self-cleavage does the source give for U9G G17C here?
Answer: 0.379

Question: Which self-cleavage does the source give for U8G G15A here?
Answer: 0.897

Question: For U8G G15C, which self-cleavage is on record?
Answer: 0.639

Question: Which self-cleavage does the source give for U9C U14A here?
Answer: 0.781

Question: For U8C G68C, which self-cleavage is on record?
Answer: 0.238

Question: For U9G G27U, which self-cleavage is on record?
Answer: 0.171

Question: With U9G G27A as the variant, how does the self-cleavage read?
Answer: 0.332

Question: With U8C G25U as the variant, how does the self-cleavage read?
Answer: 0.32

Question: For U9A G19C, which self-cleavage is on record?
Answer: 0.588

Question: With U9C G42A as the variant, how does the self-cleavage read?
Answer: 0.081

Question: Which self-cleavage does the source give for U9C G42U here?
Answer: 0.34

Question: With U8A G34A as the variant, how does the self-cleavage read?
Answer: 0.98

Question: With U9A U62A as the variant, how does the self-cleavage read?
Answer: 0.174

Question: With U9C G54U as the variant, how does the self-cleavage read?
Answer: 0.539

Question: For U8G A31G, which self-cleavage is on record?
Answer: 0.47

Question: Which self-cleavage does the source give for U8G A31U here?
Answer: 0.112

Question: For U9A G17A, which self-cleavage is on record?
Answer: 0.695

Question: For U9A G17C, which self-cleavage is on record?
Answer: 0.261

Question: Which self-cleavage does the source give for U9A G17U here?
Answer: 0.65

Question: Which self-cleavage does the source give for U8C A71G here?
Answer: 0.974

Question: Which self-cleavage does the source give for U9G A30C here?
Answer: 0.206

Question: With U9G A30U as the variant, how does the self-cleavage read?
Answer: 0.0546

Question: For U9A G42C, which self-cleavage is on record?
Answer: 0.187

Question: Which self-cleavage does the source give for U8A G25U here?
Answer: 0.114

Question: For U8A G25A, which self-cleavage is on record?
Answer: 0.432

Question: With U9G A35U as the variant, how does the self-cleavage read?
Answer: 0.631

Question: With U8A C65G as the variant, how does the self-cleavage read?
Answer: 0.104

Question: For U8A C65A, which self-cleavage is on record?
Answer: 0.63

Question: Which self-cleavage does the source give for U8A C65U here?
Answer: 0.258

Question: For U8G C66U, which self-cleavage is on record?
Answer: 0.412

Question: For U9C C48G, which self-cleavage is on record?
Answer: 0.145

Question: Which self-cleavage does the source give for U9C C48U here?
Answer: 0.0794

Question: Which self-cleavage does the source give for U8C U67C here?
Answer: 0.159

Question: For U8C U67G, which self-cleavage is on record?
Answer: 0.226

Question: For U8G C10G, which self-cleavage is on record?
Answer: 0.676

Question: For U8G U55A, which self-cleavage is on record?
Answer: 0.193

Question: With U8G U55C as the variant, how does the self-cleavage read?
Answer: 0.232

Question: For U8G G21A, which self-cleavage is on record?
Answer: 0.693

Question: With U8G G21C as the variant, how does the self-cleavage read?
Answer: 0.401

Question: Which self-cleavage does the source give for U8C C37U here?
Answer: 0.347

Question: Which self-cleavage does the source give for U9C U67A here?
Answer: 0.174

Question: Which self-cleavage does the source give for U8C G13A here?
Answer: 0.722

Question: Which self-cleavage does the source give for U8C G13U here?
Answer: 0.529

Question: For U9C C10G, which self-cleavage is on record?
Answer: 0.582

Question: Which self-cleavage does the source give for U8C A23C here?
Answer: 0.68

Question: For U8C A23U, which self-cleavage is on record?
Answer: 0.841

Question: With U9G G34U as the variant, how does the self-cleavage read?
Answer: 1.15
